{
  "source": "patent US12012457",
  "about": "(SYNTHEKINE, dated 2024)",
  "data": [
    {"target": "T1, extracellular domain of mouse IL23R (mIL23R ECD) (mouse, UniProt Q8K4B4 24-374)", "T1 construct": "also called mIL-23 ECD antigen", "T1 sequence": "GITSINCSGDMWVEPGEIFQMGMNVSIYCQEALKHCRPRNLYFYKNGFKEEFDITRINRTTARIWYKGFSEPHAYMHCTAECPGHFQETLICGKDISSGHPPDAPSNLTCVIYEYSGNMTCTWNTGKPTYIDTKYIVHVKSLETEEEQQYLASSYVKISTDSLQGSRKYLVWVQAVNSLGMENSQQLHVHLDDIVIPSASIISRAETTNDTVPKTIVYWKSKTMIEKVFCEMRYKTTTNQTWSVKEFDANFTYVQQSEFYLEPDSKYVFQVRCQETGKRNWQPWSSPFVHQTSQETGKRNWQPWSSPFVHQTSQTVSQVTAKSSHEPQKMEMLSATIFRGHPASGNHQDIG", "test": "periplasmic extract ELISA (PE-ELISA), 96-well plate, colorimetric", "values": [
      {"binder": "mIL23R VHH3 (VHH) VHH: QVQLQESGGGSVQAGGSLRLSCTASVNTYCEYNMSWYRQAPGKEREFVSGVDSDGSTRYSESVKGRFTISQDNAKNTMYLQMNGLKPEDTAMYYCKTYVCTFCSGNSCYYEYKYYYEGQGTQVTVSS", "binding result": "binds"},
      {"binder": "mIL23R VHH18 (VHH) VHH: QVQLQESGGGLVQPGGSLRLSCAASGFTFRLTAMRWVRQAPGKGLEWVSGIDSRGSTIYADSVKGRFTISKDNAKNTLYLQLNSLKTEDTAMYYCAQGVYGDTYSGSQGTQVTVSS", "binding result": "binds"},
      {"binder": "mIL23R VHH9 (VHH) VHH: QVQLQESGGGLVQPGGSLRLSCATSGFTFRLTAMRWVRQAPGKGVEWVSGIDSAGSTIYADSVKGRFTISKDNAKNTLYLQMNSLKTEDTAMYYCAQGVYGDTYSGSQGTQVTVSS", "binding result": "binds"},
      {"binder": "mIL23R VHH17 (VHH) VHH: QVQLQESGGGSVQAGGSLRLSCAASGFTFRLTAMRWVRQAPGKGLEWVSGIDSRGSTIYADSVKGRFTISKDNAKNTLYLQLNSLKTEDTAMYYCAQGVYGDTYSGSQGTQVTVSS", "binding result": "binds"},
      {"binder": "mIL23R VHH44 (VHH) VHH: QVQLQESGGGLVQPGGSLRLSCAASGFTFRLSAMRWVRQAPGKGFEWVSGIDSRGSTIYADSVKGRFTISKDNAKNTLYLQLNSLKTEDTAMYYCAQGVYGDTYSGSQGTQVTVSS", "binding result": "binds"},
      {"binder": "mIL23R VHH34 (VHH) VHH: QVQLQESGGGLVQPGGSLRLSCAASGFTFRLTAMRWVRQAPGKGLEWVSGIDSRGSTIYADSVKGRFTISKDNAKNTLYLQLNSLKTEDTAMYYCAQGVYGDTHSGSQGTQVTVSS", "binding result": "binds"},
      {"binder": "mIL23R VHH45 (VHH) VHH: QVQLQESGGGLVQPGGSLRLSCAASGFTFRLSAMRWVRQAPGKGLEWVSGIDSRGSTIYADSVEGRFTISKDNAKNTLYLQLNSLKTEDTAMYYCAQGVYGDTYSGSQGTQVTVSS", "binding result": "binds"},
      {"binder": "mIL23R VHH40 (VHH) VHH: QVQLQESGGGLVQPGGSLRLSCAASGFTFRLTAMRWVRQAPGKGLEWVSGIDSRGSTIYADSVKGRFTISKDNAKNTLYLQLNSLKSEDTAMYYCAQGVYGDTYSGSQGTQVTVSS", "binding result": "binds"},
      {"binder": "mIL23R VHH19 (VHH) VHH: QVQLQESGGGLVQPGGSLRLSCAASGFTFRLSAMRWVRQAPGKGLEWVSGIDSRGSTIYADSVKGRFTISKDNAKNTLYLQLNSLKTEDTAMYYCAQGVYGDTYSGSQGTQVTVSS", "binding result": "binds"},
      {"binder": "mIL23R VHH31 (VHH) VHH: QVQLQESGGGLVQPGGSLRLSCAASGFTFRLTAMRWVRQAPGKGLEWVSGIDSRGSTIYADSVKGRFTISRDNAKNTLYLQLNSLKTEDTAMYYCAQGVYGDTYSGSQGTQVTVSS", "binding result": "binds"},
      {"binder": "mIL23R VHH30 (VHH) VHH: QVQLQESGGGLVQPGGSLRLSCAASGFTFRLTAMRWVRQAPGKGLEWVSGIDSRGSTIYADSVKGRFTISKDNAKNTLYLQLNSLKTEDTAMYYCAQGVYGDTYSGSLGTQVTVSS", "binding result": "binds"},
      {"binder": "mIL23R VHH42 (VHH) VHH: QVQLQESGGGLVQPGGSLRLSCAASGFTFSNYAMRWVRQAPGKGLEWVSGIDSRGSTIYADSVKGRFTISKDNAKNTLYLQLNSLKTEDTAMYYCAQGVYGDTYSGSQGTQVTVSS", "binding result": "binds"},
      {"binder": "mIL23R VHH28 (VHH) VHH: QVQLQESGGGLVQPGGSLRLSCAASGFTFRLTAMRWVRQAPGKGLEWVSGIDSRGSTIYADSVKGRFTISRDNAKNTLYLQLNSLKTEDAAMYYCAQGVYGDTYSGSQGTQVTVSS", "binding result": "binds"},
      {"binder": "mIL23R VHH46 (VHH) VHH: QVQLQESGGGLVQPGGSLRLSCAASGFTFRLSAMRWVRQAPGKGLEWVSGIDSRGSTIYADSVKGRFTISKDDAKNTLYLQLNSLKTEDTAMYYCAQGVYGDTYSGSQGTQVTVSS", "binding result": "binds"},
      {"binder": "mIL23R VHH2 (VHH) VHH: QVQLQESGGGSVQAGGSLTLSCTAPGFTFRLAAMRWVRQAPGKGLEWVSGIDSRGSTIYADSVKGRFTISKDNAKNTLYLQLNSLKTEDTAMYYCAQGVYGDTYSGSQGTQVTVSS", "binding result": "binds"},
      {"binder": "mIL23R VHH13 (VHH) VHH: QVQLQESGGGLVQPGGSLRLSCATSGFTFRLAAMRWVRQAPGKGLEWVSGIDSRGSTIYADSVKGRFTISKDNAKNTLYLQLNSLKTEDTAMYYCAQGVYGDTYSGSQGTQVTVSS", "binding result": "binds"},
      {"binder": "mIL23R VHH23 (VHH) VHH: QVQLQESGGGLVQPGGSLRLSCAASGFNFRLYAMRWVRQAPGKGVEWVSGIDSGGSTIYADSVKGRFTISKDNAKNTLYLQLNSLKTEDTAMYYCAQGVYGDTYSGSQGTQVTVSS", "binding result": "binds"},
      {"binder": "mIL23R VHH4 (VHH) VHH: QVQLQESGGGSVQAGGSLRLSCAASGYTYSNNCMGWFRQAPGKDRERIANIYTGGGRTTYADSVKGRFTISQDSAKSTVYLQMNSLKPEDTAMYYCAAGSCGSARSEYSYWGQGTQVTVSS", "binding result": "binds"},
      {"binder": "mIL23R VHH26 (VHH) VHH: QVQLQESGGGSVQAGGSLRLSCAASGYTFCMAWFRQAPGKEREGVARFYTRDGYTYYSDSVKGRFTISQNNAKNTLYLQMNSLKSEDTAMYYCAADLTRCSSNKNDFRYWGQGTQVTVSS", "binding result": "binds"},
      {"binder": "mIL23R VHH22 (VHH) VHH: QVQLQESGGGSVQAGGSLRLSCAASGYTFCMAWFRQAPGKEREGVARFYTRDSYTYYSDSVKGRFTISQNNAKNTLYLQMNSLKSEDTAMYYCAADLTRCSSNKNDFRYWGQGTQVTVSS", "binding result": "binds"},
      {"binder": "mIL23R VHH24 (VHH) VHH: QVQLQESGGGSVQAGGSLRLSCAVSGYTFCMAWFRQAPGKEREGVARFYTRDGYTYYSGSVKGRFTISQNNAKNTLYLQMNSLKSEDTAMYYCAADLTRCSSNKNDFRYWGQGTQVTVSS", "binding result": "binds"},
      {"binder": "mIL23R VHH5 (VHH) VHH: QVQLQESGGGSVQAGGSLRLSCAASGYTFCMAWFRQAPGKEREGVARFYTRDGYTYYSDSVKGRFTISQNNAKNTLYLQMNSLKSEDTAMYYCAADLARCSSNKNDFRYWGQGTQVTVSS", "binding result": "binds"},
      {"binder": "mIL23R VHH12 (VHH) VHH: QVQLQESGGGSVQAGGSLRLSCAASGYTYSSCTMGWYRQAPGKERELVSMLISDGSTFYADSVKGRFTFSQENAKNTVYLQMNSLKPEDTAMYYCGCATLGSRTVWGQGTQVTVSS", "binding result": "binds"},
      {"binder": "mIL23R VHH8 (VHH) VHH: QVQLQESGGGSVQAGGSLRLSCTASRYTYSSCTMGWYRQAPGKERELVSMVFSDGSTFYADSVKGRFTFSQENAKNTVYLQMNSLKPEDTAMYYCGCATLGSRTIWGQGTQVTVSS", "binding result": "binds"},
      {"binder": "mIL23R VHH16 (VHH) VHH: QVQLQESGGGSVQAGGSLRLSCAASGDTYSSCTMGWYRQAPGKERDLVSMLMGDGSTFYADSVKGRFTFSQENAKNTVYLQMNNLKPEDTAMYYCGCATLGSRTIWGQGTQVTVSS", "binding result": "binds"},
      {"binder": "mIL23R VHH36 (VHH) VHH: QVQLQESGGGSVQAGGSLRLSCAASGDTYSSCTMGWYRQAPGKERDLVSMVFSDGSTFYADSVKGRFTFSQENAKNTVYLQMNSLKPEDTAMYYCGCATLGSRTIWGQGTQVTVSS", "binding result": "binds"},
      {"binder": "mIL23R VHH10 (VHH) VHH: QVQLQESGGGSVQAGGSLRLSCAASGDTYSSCTMGWYRQAPGKERDLVSMLMGDGSTFYADSVKGRFTFSQENAKNTVYLQMNSLKPEDTAMYYCGCATLGSRTIWGQGTQVTVSS", "binding result": "binds"},
      {"binder": "mIL23R VHH15 (VHH) VHH: QVQLQESGGGSVQAGGSLRLSCAASGYTYSSCTMGWYRQAPGKERELVSMVFSDGSTFYADSVKGRFTFSQENAKNTVYLQMNSLKPEDTAMYYCGCATLGSRTIWGQGTQVTVSS", "binding result": "binds"},
      {"binder": "mIL23R VHH1 (VHH) VHH: QVQLQESGGGSVQAGGSLRLSCAASGYTYSSCTMGWYRQAPGKERELVSMLISDGSTFYADSVKGRFTFSQEYAKNTVYLQMNSLKPEDTAMYYCGCATLGSRTVWGQGTQVTVSS", "binding result": "binds"},
      {"binder": "mIL23R VHH25 (VHH) VHH: QVQLQESGGGSVQAGGSLRLSCAASGYTYSSCTMGWYRQAPGKERELVSMLISDGSTFYADSVKGRFTFSQENAKNTVYLQMNSLKPEDTAMYFCGCATLGSRTVWGQGTQVTVSS", "binding result": "binds"},
      {"binder": "mIL23R VHH11 (VHH) VHH: QVQLQESGGGSVQAGGSLRLSCAASGYTYSSCTMGWYRQAPGKERELVSMLISDGSTFYADSVKGRFTFSQENAKSTVYLQMNSLKPEDTAMYYCGCATLGSRTVWGQGTQVTVSS", "binding result": "binds"},
      {"binder": "mIL23R VHH27 (VHH) VHH: QVQLQESGGGSVQAGGSLRLSCAASGYTYSSCTMGWYRQAPGKERELVSMLISDGSTFYADSVKGRFTSSQENAKNTVYLQMNSLKPEDTAMYYCGCATLGSRTVWGQGTQVTVSS", "binding result": "binds"}
    ]}
  ]
}
